Substitutions are numbered along the chain they refer to. Numbers in names are those of the source.
B1: wild-type human matrix metalloprotease 1 (hMMP-1), purified and trypsin-activated (protein)
chain: FVLTEGNPRWEQTHLTYRIENYTPDLPRADVDHAIEKAFQLWSNVTPLTFTKVSEGQADIMISFVRGDHRDNSPFDGPGGNLAHAFQPGPGIGGDAHFDEDERWTNNFREYNLHRVAAHELGHSLGLSHSTDIGALMYPSYTFSGDVQLAQDDIDGIQAIYGRSQNPVQPIGPQTPKACDSKLTFDAITTIRGEVMFFKDRFYMRTNPFYPEVELNFISVFWPQLPNGLEAAYEFADRDEVRFFKGNKYWAVQGQNVLHGYPKDIYSSFGFPRTVKHIDAALSEENTGKTYFFVANKYWRYDEYKRSMDPGYPKMIAHDFPGIGHKVDAVFMKDGFFYFFHGTRQYKFDPKTKRILTLQKANSWFNCRKN
B2: MMP-1 mutant GVSK (G159V/S208K), purified and trypsin-activated (protein)
chain: B1 chain with G79V, S128K

Columns and labels:
[1] = target: T1, fluorogenic peptide substrate IX, Mca-K-P-L-G-L-Dpa-A-R-NH2
T1 chain: KPLGLAR

[2] = target: serum-derived protein (Zucker rat)

Protein | KM (µM), enzyme kinetics at 1 mM Ca^2+, 37° C. [1] | KM (µM), enzyme kinetics at 10 mM Ca^2+, 37° C. [1] | enzymatic activity against the fluorogenic peptide substrate after incubation in 10% Zucker rat serum, 1 mM Ca^2+, 25° C. [2] | enzymatic activity lost after 15 minutes in 10% Zucker rat serum, 1 mM Ca^2+, 25° C. [2] | enzymatic activity remaining after 30 minutes in 10% Zucker rat serum, 1 mM Ca^2+, 25° C. [2] | enzymatic activity remaining after 2 hours in 10% Zucker rat serum, 1 mM Ca^2+, 25° C. [2] | enzymatic activity remaining after 2 hours in 10% Zucker rat serum, 10 mM Ca^2+, 25° C. [2]
B1 | 20.6 µM | 21.1 µM | The activity of MMP-1 in 1 mM Ca^2+ buffer was unaffected by incubation with serum over the course of the study |  |  |  | 
B2 | 16.5 µM | 11 µM |  | After 15 minutes of serum incubation, one-third of the activity of GVSK in 1 mM Ca^2+ was lost | less than 50% of activity remained after 30 minutes | only approximately 17% of the activity of GVSK in 1 mM Ca^2+ remained | approximately 74% of the original activity remaining by the 2 hour time point
